Test results reported in patent US11597752B2, “Peptides and combination of peptides and scaffolds thereof for use in immunotherapy against colorectal carcinoma (CRC) and other cancers” (priority 2015, dated 2023).

Experiments:
[1] = tested on: CD8+ T-cells of healthy HLA-A*02 donors; assay: In vitro immunogenicity: T-cell priming with aAPCs loaded with peptide/MHC and anti-CD28, multimer staining; type: cell-based, human; conditions: for Wells positive [%]: HLA-A*02 restricted peptides, among evaluable wells, Table 10B; for donors: percentage of positive donors; for donors / wells: in vitro immunogenicity, Table 10A; for wells: percentage of positive wells
From the text: In order to obtain information regarding the immunogenicity of the TUMAPs of the present invention, the inventors performed investigations using an in vitro T-cell priming assay based on repeated stimulations of CD8+ T-cells with artificial antigen presenting cells (aAPCs) loaded with peptide/MHC complexes and anti-CD28 antibody.
In order to perform in vitro stimulations by artificial antigen presenting cells loaded with peptide-MHC complex (pMHC) and anti-CD28 antibody, the inventors first isolated CD8+ T-cells from fresh HLA-A*02 leukapheresis products via positive selection using CD8 microbeads (Miltenyi Biotec, Bergisch-Gladbach, Germany) of healthy donors obtained from the University clinics Mannheim, Germany, after informed consent.
PBMCs and isolated CD8+ lymphocytes were incubated in T-cell medium (TCM) until use consisting of RPMI-Glutamax (Invitrogen, Karlsruhe, Germany) supplemented with 10% heat inactivated human AB serum (PAN-Biotech, Aidenbach, Germany), 100 U/ml Penicillin/100 μg/ml Streptomycin (Cambrex, Cologne, Germany), 1 mM sodium pyruvate (CC Pro, Oberdorla, Germany), 20 μg/ml Gentamycin (Cambrex). 2.5 ng/ml IL-7 (PromoCell, Heidelberg, Germany) and 10 U/ml IL-2 (Novartis Pharma, Nürnberg, Germany) were also added to the TCM at this step.
Generation of pMHC/anti-CD28 coated beads, T-cell stimulations and readout was performed in a highly defined in vitro system using four different pMHC molecules per stimulation condition and 8 different pMHC molecules per readout condition.
The purified co-stimulatory mouse IgG2a anti human CD28 Ab 9.3 (Jung et al., 1987) was chemically biotinylated using Sulfo-N-hydroxysuccinimidobiotin as recommended by the manufacturer (Perbio, Bonn, Germany). Beads used were 5.6 μm diameter streptavidin coated polystyrene particles (Bangs Laboratories, Illinois, USA).
800.000 beads/200 μl were coated in 96-well plates in the presence of 4×12.5 ng different biotin-pMHC, washed and 600 ng biotin anti-CD28 were added subsequently in a volume of 200 μl. Stimulations were initiated in 96-well plates by co-incubating 1×10^6 CD8+ T-cells with 2×10^6 washed coated beads in 200 μl TCM supplemented with 5 ng/ml IL-12 (PromoCell) for 3 days at 37° C. Half of the medium was then exchanged by fresh TCM supplemented with 80 U/ml IL-2 and incubating was continued for 4 days at 37° C. This stimulation cycle was performed for a total of three times. For the pMHC multimer readout using 8 different pMHC molecules per condition, a two-dimensional combinatorial coding approach was used as previously described (Andersen et al., 2012) with minor modifications encompassing coupling to 5 different fluorochromes. Finally, multimeric analyses were performed by staining the cells with Live/dead near IR dye (Invitrogen, Karlsruhe, Germany), CD8-FITC antibody clone SK1 (BD, Heidelberg, Germany) and fluorescent pMHC multimers. For analysis, a BD LSRII SORP cytometer equipped with appropriate lasers and filters was used. Peptide specific cells were calculated as percentage of total CD8+ cells. Evaluation of multimeric analysis was done using the FlowJo software (Tree Star, Oregon, USA). In vitro priming of specific multimer+CD8+ lymphocytes was detected by comparing to negative control stimulations.

[2] = target: HLA-A*02:01 (Homo sapiens, UniProt P04439, D140Y/D185E/D98H/E176V/E277Q/G131W/G231S/I119V/I121R/I166T/I218V/L300P/L318F/N151K/N90K/P208A/P217A/Q86G/Q94H/R138H/R169H/T345S); assay: MHC binding assay (UV-ligand exchange, beta2m ELISA, peptide exchange yield); conditions: binding to HLA-A*02:01, β2m ELISA
How it was run: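 Exchange yield is an ELISA read-out: complexes diluted 100-fold, captured on streptavidin plates, detected with HRP anti-β2m and TMB at 450 nm. Standard curve from refolded HLA-A*02:01/MLA-001 (15-500 ng/ml); complexes made by UV-triggered displacement of a photolabile ligand by test peptide.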

Row | Substance | Wells positive [%] [1] | Peptide exchange (MHC class I binding score, peptide exchange yield) [2] | donors [1] | wells [1]
1 | 1 (ALIKQLFEA; listed as Homo sapiens) [compound 1] | “+” (<20% = +) | “+++” (≥50 = +++) | – | –
2 | 2 (ALLPRYFFL; listed as Homo sapiens) [compound 2] | “++++” (>=70% = ++++) | “++” (≥20% = ++) | – | –
3 | 7 (YLTRHLAVL; listed as Homo sapiens) [compound 7] | “+” (<20% = +) | “++” (≥20% = ++) | – | –
4 | 9 (ILDDHLSRV; listed as Homo sapiens) [compound 9] | “+” (<20% = +) | “++” (≥20% = ++) | – | –
5 | 10 (RMYNKIFAI; listed as Homo sapiens) [compound 10] | “++++” (>=70% = ++++) | “+++” (≥50 = +++) | – | –
6 | 11 (YLFEKTFNM; listed as Homo sapiens) [compound 11] | “+” (<20% = +) | “+++” (≥50 = +++) | – | –
7 | 12 (ALVQGILERV; listed as Homo sapiens) [compound 12] | “++++” (>=70% = ++++) | “+++” (≥50 = +++) | – | –
8 | 18 (FLSSLKGGLL; listed as Homo sapiens) [compound 18] | “+” (<20% = +) | “+++” (≥50 = +++) | – | –
9 | 21 (VLIDHRWVL; listed as Homo sapiens) [compound 21] | “+” (<20% = +) | “+++” (≥50 = +++) | – | –
10 | 37 (GLFAGLGGAGA; listed as Homo sapiens) [compound 37] | “+” (<20% = +) | “+++” (≥50 = +++) | – | –
11 | 38 (SLAPTPVSA; listed as Homo sapiens) [compound 38] | “+” (<20% = +) | “++” (≥20% = ++) | – | –
12 | 42 (SILDDSFKL; listed as Homo sapiens) [compound 42] | “+” (<20% = +) | “++++” (≥75% = ++++) | – | –
13 | 47 (KLYERCEVV; listed as Homo sapiens) [compound 47] | “+” (<20% = +) | “++” (≥20% = ++) | – | –
14 | 59 (LLTDNVVKL; listed as Homo sapiens) [compound 59] | “+” (<20% = +) | “+++” (≥50 = +++) | – | –
15 | 64 (KTLGKLWRL; listed as Homo sapiens) [compound 64] | “++++” (>=70% = ++++) | “++” (≥20% = ++) | – | –
16 | 123 (KTLERSYLL; listed as Homo sapiens) [compound 123] | “+” (<20% = +) | “++” (≥20% = ++) | – | –
17 | 124 (RVLPPSALQSV; listed as Homo sapiens) [compound 124] | “+” (<20% = +) | “+++” (≥50 = +++) | – | –
18 | 127 (RLAELTVDEFLA; listed as Homo sapiens) [compound 127] | “+” (<20% = +) | “+++” (≥50 = +++) | – | –
19 | 132 (ALLNAILHSA; listed as Homo sapiens) [compound 132] | “+” (<20% = +) | “+++” (≥50 = +++) | – | –

Row | Substance | Wells positive [%] [1] | Peptide exchange (MHC class I binding score, peptide exchange yield) [2] | donors [1] | wells [1]
20 | 133 (RTFEKIEEV; listed as Homo sapiens) [compound 133] | “+” (<20% = +) | “++” (≥20% = ++) | – | –
21 | 141 (AVIEHLERL; listed as Homo sapiens) [compound 141] | “+” (<20% = +) | “++++” (≥75% = ++++) | – | –
22 | 142 (SLVQRVETI; listed as Homo sapiens) [compound 142] | “+” (<20% = +) | “+++” (≥50 = +++) | – | –
23 | 150 (RLADLEALKV; listed as Homo sapiens) [compound 150] | “++” (20%-49% = ++) | “+++” (≥50 = +++) | – | –
24 | 179 (RLLSPLSSA; listed as Homo sapiens) [compound 179] | – | “+++” (≥50 = +++) | – | –
25 | 181 (NLFDLGGQYLRV; listed as Homo sapiens) [compound 181] | – | “+++” (≥50 = +++) | – | –
26 | 182 (SLNKWIFTV; listed as Homo sapiens) [compound 182] | – | “++++” (≥75% = ++++) | – | –
27 | 183 (TLQEVVTGV; listed as Homo sapiens) [compound 183] | – | “+++” (≥50 = +++) | – | –
28 | 184 (SLLDENNVSSYL; listed as Homo sapiens) [compound 184] | – | “+++” (≥50 = +++) | – | –
29 | 185 (VLYTGVVRV; listed as Homo sapiens) [compound 185] | – | “+++” (≥50 = +++) | – | –
30 | 186 (KMSEKILLL; listed as Homo sapiens) [compound 186] | – | “+++” (≥50 = +++) | – | –
31 | 187 (GLHNVVYGI; listed as Homo sapiens) [compound 187] | – | “+++” (≥50 = +++) | – | –
32 | 188 (FLVDGPRVQL; listed as Homo sapiens) [compound 188] | – | “+++” (≥50 = +++) | – | –
33 | 189 (AISEVIGKITA; listed as Homo sapiens) [compound 189] | – | “+++” (≥50 = +++) | – | –
34 | 190 (AMAEMVLQV; listed as Homo sapiens) [compound 190] | – | “+++” (≥50 = +++) | – | –
35 | 191 (QLFSEIHNL; listed as Homo sapiens) [compound 191] | – | “++++” (≥75% = ++++) | – | –
36 | 219 (FLDEKGRCV; listed as Homo sapiens) [compound 219] | – | – | +++ (50%-69% = +++) | ++ (20%-49% = ++)
37 | 220 (KMDPVAYRV; listed as Homo sapiens) [compound 220] | – | – | ++++ (>=70% = ++++) | +++ (50%-69% = +++)
